Literature values in publication PMC9437947.

Target: Lys166 (UniProt position 166, RAVKTKIGYPA)
Experiment: kinetics
Settings: H297N mutant turning over S-mandelate in the exchange reaction

Substance: Mandelate racemase H297N mutant (Pseudomonas putida (inferred; organism not stated in the article); H297N)
- pKa: ~ 6
